B1: OX40SF2IgG2sigma_R2BS29_HC-C (bispecific antibody)
heavy: QVQLVQSGAEVKKPGSSVKVSCKASGYTFKDYTMHWVRQAPGQGLEWIGGIYPNNGGSTYNQNFKDRVTLTADKSTSTAYMELSSLRSEDTAVYYCARMGYHGPHLDFDVWGQGTTVTVSSASTKGPSVFPLAPCSRSTSESTAALGCLVKDYFPEPVTVSWNSGALTSGVHTFPAVLQSSGLYSLSSVVTVPSSNFGTQTYTCNVDHKPSNTKVDKTVERKCCVECPPCPAPPAAASSVFLFPPKPKDTLMISRTPEVTCVVVDVSAEDPEVQFNWYVDGVEVHNAKTKPREEQFNSTFRVVSVLTVLHQDWLNGKEYKCKVSNKGLPSSIEKTISKTKGQPREPQVYTLPPSREEMTKNQVSLTCLVKGFYPSDIAVEWESNGQPENNYKTTPPMLDSDGSFFLYSKLTVDKSRWQQGNVFSCSVMHEALHNHYTQKSLSLSPGKGGGGGSGGGGSGGGGSGGGGSLPAPKNLVVSRVTEDSARLSWTAPDAAFDSFPIYYWEYRVGGEAIVLTVPGSERSYDLTGLKPGTEYFVYINGVKGGEESRPLSAIFTT
light: DIQMTQSPSSLSASVGDRVTITCKASQDVGAAVAWYQQKPGKAPKLLIYWASTRHTGVPSRFSGSGSGTDFTLTISSLQPEDFATYYCQQYINYPLTFGGGTKVEIKRTVAAPSVFIFPPSDEQLKSGTASVVCLLNNFYPREAKVQWKVDNALQSGNSQESVTEQDSKDSTYSLSSTLTLSKADYEKHKVYACEVTHQGLSSPVTKSFNRGEC
notes: mAbtyrin: anti-OX40 antibody OX40SF2, effector silent IgG2sigma, with linker and R2BS29 FN3 domain at the C-terminus of the heavy chain; also called mAbtyrin
B2: OX40SF2IgG1 (antibody)
heavy: not shown
light: B1 light
notes: Anti-OX40 antibody, wild-type IgG1; control without FN3 domain
B3: OX40SF2IgG2sigma (antibody)
heavy: QVQLVQSGAEVKKPGSSVKVSCKASGYTFKDYTMHWVRQAPGQGLEWIGGIYPNNGGSTYNQNFKDRVTLTADKSTSTAYMELSSLRSEDTAVYYCARMGYHGPHLDFDVWGQGTTVTVSSASTKGPSVFPLAPCSRSTSESTAALGCLVKDYFPEPVTVSWNSGALTSGVHTFPAVLQSSGLYSLSSVVTVPSSNFGTQTYTCNVDHKPSNTKVDKTVERKCCVECPPCPAPPAAASSVFLFPPKPKDTLMISRTPEVTCVVVDVSAEDPEVQFNWYVDGVEVHNAKTKPREEQFNSTFRVVSVLTVLHQDWLNGKEYKCKVSNKGLPSSIEKTISKTKGQPREPQVYTLPPSREEMTKNQVSLTCLVKGFYPSDIAVEWESNGQPENNYKTTPPMLDSDGSFFLYSKLTVDKSRWQQGNVFSCSVMHEALHNHYTQKSLSLSPGK
light: B1 light
notes: Anti-OX40 antibody, IgG2 sigma isotype (effector silent Fc: V234A, G237A, P238S, H268A, V309L, A330S, P331S against wild type IgG2); control without FN3 domain; also called parental antibody; parental OX40 antibody

What was measured:
[1] = target: T1, human FcγRIIA (NM_021642) expressed on cells (human, UniProt P12318 36-317); assay: cell-based or functional assay
T1 sequence: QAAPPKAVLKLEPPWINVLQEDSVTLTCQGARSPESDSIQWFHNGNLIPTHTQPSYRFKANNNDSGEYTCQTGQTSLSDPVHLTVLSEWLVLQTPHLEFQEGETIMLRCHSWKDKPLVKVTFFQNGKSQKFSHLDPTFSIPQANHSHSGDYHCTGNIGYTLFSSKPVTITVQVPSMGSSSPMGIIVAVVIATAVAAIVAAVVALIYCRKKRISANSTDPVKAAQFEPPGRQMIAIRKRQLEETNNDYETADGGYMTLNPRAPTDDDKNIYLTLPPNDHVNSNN

[2] = target: human FcγRIIIA (NM_000569) expressed on cells (human, UniProt P08637 17-254); assay: cell-based or functional assay
Chain of human FcγRIIIA (NM_000569) expressed on cells (P08637 17-254 limits assumed): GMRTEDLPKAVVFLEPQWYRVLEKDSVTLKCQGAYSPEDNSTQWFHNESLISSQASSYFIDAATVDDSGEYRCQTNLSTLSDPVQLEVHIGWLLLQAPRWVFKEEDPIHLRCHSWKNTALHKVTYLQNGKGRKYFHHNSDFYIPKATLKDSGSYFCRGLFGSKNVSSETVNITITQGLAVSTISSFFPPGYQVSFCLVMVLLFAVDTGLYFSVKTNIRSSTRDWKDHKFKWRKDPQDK

[3] = target: T2, human OX40 expressed on HEK-Blue: OX40 cells (human, UniProt P43489 29-277); assay: flow cytometry; HEK-Blue: OX40 cells
T2 construct: also called CD134
T2 sequence: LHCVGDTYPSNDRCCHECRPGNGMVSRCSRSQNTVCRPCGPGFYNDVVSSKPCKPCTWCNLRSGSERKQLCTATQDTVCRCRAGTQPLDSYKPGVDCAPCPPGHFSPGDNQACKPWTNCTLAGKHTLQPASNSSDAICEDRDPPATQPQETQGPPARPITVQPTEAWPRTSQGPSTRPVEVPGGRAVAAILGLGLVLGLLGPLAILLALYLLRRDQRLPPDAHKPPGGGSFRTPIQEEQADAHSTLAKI
Procedure, shortened: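 HEK-Blue Null 1 cells stably transfected with human OX40 were blocked, then incubated with mAbtyrin for 1.5 h at 4 °C. Binding was detected with a PE anti-human IgG F(ab′)₂ secondary, gating on DRAQ7-excluding live cells and taking geometric mean fluorescence. EC50 came from nonlinear regression versus log antibody concentration.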

[4] = target: T3, human FcγRIIB (NM_004001) expressed on cells (human, UniProt P31994 43-310); assay: cell-based or functional assay
T3 sequence: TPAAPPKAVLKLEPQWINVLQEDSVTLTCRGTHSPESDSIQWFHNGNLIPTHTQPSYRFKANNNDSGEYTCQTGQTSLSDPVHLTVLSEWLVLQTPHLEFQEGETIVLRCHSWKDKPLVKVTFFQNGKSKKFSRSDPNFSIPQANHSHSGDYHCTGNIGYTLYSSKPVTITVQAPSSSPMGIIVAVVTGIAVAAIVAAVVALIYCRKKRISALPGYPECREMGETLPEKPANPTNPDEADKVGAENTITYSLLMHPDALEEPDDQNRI

[5] = target: T4, FcγRIIB protein (human, UniProt P31994 43-217, biotinylated (SureLINK Biotin Kit) in the ELISA of Example 1); assay: cell-based or functional assay
T4 sequence: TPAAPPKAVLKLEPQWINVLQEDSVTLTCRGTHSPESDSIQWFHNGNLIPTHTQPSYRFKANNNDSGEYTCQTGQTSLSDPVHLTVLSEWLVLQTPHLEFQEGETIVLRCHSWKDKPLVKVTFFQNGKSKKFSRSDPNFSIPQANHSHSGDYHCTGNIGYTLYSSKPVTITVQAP

[6] = target: T5, FcγRIIA protein (human, UniProt P12318 36-217, biotinylated (SureLINK Biotin Kit) in the ELISA of Example 1); assay: cell-based or functional assay
T5 sequence: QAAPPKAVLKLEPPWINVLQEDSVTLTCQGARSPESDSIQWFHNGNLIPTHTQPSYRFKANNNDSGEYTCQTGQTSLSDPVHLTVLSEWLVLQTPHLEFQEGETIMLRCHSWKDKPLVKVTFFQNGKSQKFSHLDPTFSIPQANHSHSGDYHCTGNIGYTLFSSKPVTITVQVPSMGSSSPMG

Binder	ADCP EC50 [1] [µg/mL]	ADCC (fold activation) at 1 µg/ml [2] [fold]	Binding to HEK-Blue: OX40 cells (mean signal at 1 µg/ml) [3] [mean fluorescence signal]	EC50 [3] [µg/mL]	% activity at 1 µg/ml with Raji cells (HEK-Blue: OX40 NF-κB reporter) [4] [%]	IFNγ production by activated CD4 T cells, plate-coated FcγRIIb [5] [pg/mL]	TNFα production by activated CD4 T cells, plate-coated FcγRIIb [5] [pg/mL]	IFNγ production by activated CD4 T cells, plate-coated FcγRIIA [6] [pg/mL]	TNFα production by activated CD4 T cells, plate-coated FcγRIIA [6] [pg/mL]
B1	0.0375	1	9180	0.548	93	1330	250	1550	226
B2	0.0393	9		0.229	9	70	30	92	28
B3	> 1	1	13900	0.166	2	70	30	97	28

Reference: US20190062420A1 (Janssen / Centocor, published 2019)
